In the supplement of paper PMC12667976:
± gives the standard error.

B1: library; numbered along this chain (parent)
chain: MATDAALRRLLRLHRTEIAVAVDSAFPLLHALADHDVVPEDKFQETLHLKEKEGCPQAFHALLSWLLTQDSTAILDFWRVLFKDYNLERYGRLQPILDSFPKDVDLSQPRKGRKPPAVPKALVPPPRLPTKRKASEEARAAAPAALTPRGTASPGSQLKAKPPKKPESSAEQQRLPLGNGIQTMSASVQRAVAMSSGDVPGARGAVEGILIQQVFESGGSKKCIQVGGEFYTPSKFEDSGSGKNKARSSSGPKPLVRAKGAQGAAPGGGEARLGQQGSVPAPLALPSDPQLHQKNEDECAVCRDGGELICCDGCPRAFHLACLSPPLREIPSGTWRCSSCLQATVQEVQPRAEEPRPQEPPVETPLPPGLRSAGEEVRGPPGEPLAGMDTTLVYKHLPAPPSAAPLPGLDSSALHPLLCVGPEGQQNLAPGARCGVCGDGTDVLRCTHCAAAFHWRCHFPAGTSRPGTGLRCRSCSGDVTPAPVEGVLAPSPARLAPGPAKDDTASHEPALHRDDLESLLSEHTFDGILQWAIQSMARPAAPFPS

Variants of: B1
Test: AIRE transcriptional activation functional score (insulin promoter-GFP; nonsense median 0, synonymous median 1) (normalised score); higher = higher AIRE activity (more reporter activation)
Settings: with insulin promoter-GFP reporter in HEK293
Experimental: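 Deep mutational scan of full-length human AIRE (codon-optimized cDNA, DT-POPCode NNN libraries over three regions) integrated at a Bxb1 landing pad in HEK293 cells carrying an insulin core promoter-GFP reporter at a Flp-In site. Cells were sorted for the top 10% GFP about 14 days after transfection. Variant frequency log-ratios (select vs non-select, TileSeq) were rescaled so that the nonsense median is 0 and the synonymous median is 1, then averaged over biological replicates.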

AIRE transcriptional activation functional score of substitutions, site by site:
L13: W 0.425 ± 0.079, E 0.79 ± 0.053, I 0.695 ± 0.26, S -0.217 ± 0.59, G -0.0939 ± 0.53, R 1.36 ± 0.45, D -0.291 ± 1.1, F 1.11 ± 0.37, H 0.357 ± 0.16, P 0.275 ± 0.3, V 0.593 ± 0.48, Y 1.42 ± 0.61, A 0.273 ± 0.21, T 0.418 ± 0.36, C 0.26 ± 0.64, N -0.209 ± 0.12, M 1.23 ± 0.27, Q 0.368 ± 0.3
T3: S 0.972 ± 0.75, A 1.09 ± 0.56, I -0.128 ± 0.25, K 1.31 ± 0.12, L 1.26 ± 0.31, G 0.0107 ± 0.19, R 1.18 ± 0.6, P -0.0536 ± 0.46, W 2.08 ± 0.48, E -0.211 ± 0.065, N 0.808 ± 0.74, V 0.465 ± 0.14, M 1.74 ± 0.052
R9: H 0.195 ± 0.13, K -2.37 ± 0.13, F -0.124 ± 0.19, W 0.515 ± 0.082, D 0.539 ± 0.48, S 1.39 ± 0.75, N 1.38 ± 0.35, E -0.057 ± 0.29, M 0.633 ± 0.12, G 0.856 ± 0.66, A 1.09 ± 0.34, C -0.35 ± 0.18, P 0.671 ± 0.54, T 0.253 ± 0.34, Y 0.868 ± 1.2, Q 1.13 ± 0.62, L 0.268 ± 0.39, V 0.133 ± 0.31, I 0.0495 ± 0.27
A6: P 0.153 ± 0.34, I 0.395 ± 0.37, W 0.676 ± 0.14, G 1.2 ± 0.27, D 1.01 ± 1.3, H 0.532 ± 0.11, L 1.45 ± 0.73, Q 1.03 ± 0.075, M 0.372 ± 0.17, R 0.648 ± 0.17, Y 2.12 ± 1.1, V 0.772 ± 0.51, F 1.43 ± 0.77, S 0.223 ± 0.61, C 0.756 ± 0.3, E 1.37 ± 0.1, N -0.00395 ± 0.93, T 0.643 ± 0.46
A19: C 0.605 ± 0.3, K 0.838 ± 1.1, P -0.228 ± 0.44, R 0.348 ± 0.55, Y -2.2 ± 0.58, G 0.563 ± 0.33, T -0.102 ± 0.31, H 0.194 ± 0.27, V -0.0384 ± 0.33, I -0.333 ± 0.57, Q -1.03 ± 0.17, L 0.0523 ± 0.27, W -0.29 ± 0.099, M 1.9 ± 0.1, F 0.0254 ± 0.21, S 0.921 ± 0.61, D 0.412 ± 0.59, E 0.513 ± 0.43
T16: R -0.0166 ± 0.31, H -0.704 ± 0.84, I -0.0145 ± 0.17, C 0.227 ± 0.26, K -0.208 ± 0.32, D -0.128 ± 0.45, S -0.287 ± 0.29, P -0.109 ± 0.47, E 1.64 ± 0.14, V 0.0381 ± 0.39, Q -0.475 ± 0.078, Y 0.309 ± 0.36, N 0.597 ± 0.079, L -0.113 ± 0.4, M 0.203 ± 0.12, A -0.419 ± 0.84, G 0.0399 ± 0.37, F -0.112 ± 0.16, W -0.366 ± 0.048
R15: D 0.279 ± 0.29, G -0.349 ± 0.32, Y -0.904 ± 0.22, K -1.95 ± 0.17, L 0.37 ± 0.32, W 0.0452 ± 0.059, A -0.222 ± 0.32, P -0.373 ± 1, T 0.316 ± 0.23, Q 0.45 ± 0.067, M 0.112 ± 0.11, H -0.146 ± 0.19, I 0.486 ± 0.75, S -0.0525 ± 0.75, V 0.0544 ± 0.6, C -0.257 ± 0.17, F 0.0396 ± 0.61
E17: I -0.454 ± 0.54, P -0.151 ± 0.34, R -0.438 ± 0.75, W -0.29 ± 0.14, S -0.0199 ± 0.23, M 0.896 ± 0.27, Q -0.406 ± 0.85, D 1.42 ± 0.72, K 0.389 ± 0.19, A 0.78 ± 0.58, C -0.595 ± 0.37, V 0.0123 ± 0.26, N -0.662 ± 0.64, G -0.233 ± 0.71, Y -0.411 ± 0.17, L 0.113 ± 0.36, T 0.383 ± 0.71, F -0.224 ± 0.25, H 0.241 ± 1
R12: F -0.626 ± 0.18, M 0.457 ± 0.063, G 0.415 ± 0.41, Q -1.11 ± 0.89, L 0.419 ± 0.69, S -0.0905 ± 0.47, C -0.448 ± 0.53, P 0.187 ± 0.17, V 0.442 ± 0.52, I -0.464 ± 0.25, T -0.393 ± 0.21, K 1.84 ± 0.66, H -0.211 ± 0.16, D -0.77 ± 0.14, Y -0.191 ± 0.23, E -0.463 ± 0.9, A -0.914 ± 0.56, W -0.0189 ± 0.097
H14: E -1.27 ± 0.55, C -0.236 ± 0.35, L -0.153 ± 0.31, P -0.256 ± 0.64, G 0.338 ± 0.25, I -0.18 ± 0.47, V -0.238 ± 0.39, N 1.68 ± 0.1, W 0.335 ± 0.094, M -0.84 ± 0.27, Y 0.888 ± 0.31, T 0.312 ± 0.1, F 0.561 ± 0.32, A -0.0434 ± 0.09, D -0.577 ± 0.094, R -0.348 ± 0.51, S 0.00226 ± 0.49, Q 0.144 ± 0.28
R8: D 0.401 ± 0.51, T -0.0815 ± 0.38, G -0.0812 ± 0.54, K 0.485 ± 0.11, W -0.126 ± 0.086, H -0.286 ± 0.2, F -0.127 ± 0.28, Y -0.316 ± 0.91, P -0.196 ± 0.54, A -0.421 ± 0.42, C 0.131 ± 0.12, N -0.26 ± 0.14, I 0.433 ± 0.29, S 0.281 ± 0.48, L -0.0603 ± 0.58, E -0.344 ± 0.079, Q -1.39 ± 0.14, V -0.0144 ± 0.31
L10: G -0.12 ± 0.14, P 0.292 ± 0.34, N -0.218 ± 0.44, D 0.416 ± 0.19, R 0.701 ± 0.58, Q -0.766 ± 0.54, W -0.175 ± 0.14, V -0.151 ± 0.34, H 1.75 ± 0.32, C -0.25 ± 0.31, Y 1.01 ± 0.24, A -0.0675 ± 0.18, M 0.438 ± 0.057, E -0.413 ± 0.3, K -1.76 ± 0.75, I 0.238 ± 0.76, F 0.827 ± 0.25, S -0.035 ± 0.35, T 0.145 ± 0.36
I18: E 0.682 ± 0.3, S 0.138 ± 0.48, Q -0.126 ± 0.07, C -0.426 ± 0.095, W 0.00284 ± 0.15, Y -0.479 ± 0.28, L 0.304 ± 0.57, M 0.409 ± 0.13, A -0.708 ± 0.62, H 0.614 ± 0.35, R 0.483 ± 0.28, D 0.751 ± 0.068, K 0.219 ± 0.83, F 0.0176 ± 0.2, T -0.194 ± 0.67, P -0.146 ± 0.3, G 0.378 ± 0.28, V -0.092 ± 0.32, N -0.247 ± 0.45
A5: E 1.41 ± 0.12, T 1.04 ± 0.38, Y 0.397 ± 0.37, W 0.849 ± 0.1, D 0.947 ± 0.62, I 1.2 ± 0.62, L 1 ± 0.51, M 0.955 ± 0.1, V 1.45 ± 0.2, S 1.24 ± 0.36, C 1.17 ± 0.35, F 0.709 ± 0.23, G 0.74 ± 0.35, Q 0.782 ± 0.05, R 1.72 ± 0.62, P 0.767 ± 0.54, H 0.534 ± 0.3, N 0.61 ± 0.13
A2: P 1.55 ± 0.37, E 1.14 ± 0.08, V -0.0464 ± 0.12, G 0.545 ± 0.1, T 0.369 ± 0.19, S 1.27 ± 0.12
L7: W 0.0852 ± 0.06, T 1.26 ± 0.37, G -0.106 ± 0.71, V -0.199 ± 0.32, I 0.982 ± 0.18, H 0.927 ± 0.78, F -0.323 ± 0.33, C -1 ± 0.98, Y 0.122 ± 0.12, Q 0.381 ± 0.63, A -0.112 ± 0.16, N -0.876 ± 0.22, D -0.451 ± 0.08, R 0.0717 ± 0.84, M 0.507 ± 0.28, S 0.248 ± 0.41, K -0.0956 ± 0.16, P 0.0964 ± 0.66
L11: A -0.709 ± 0.55, T -0.0406 ± 0.65, V 0.213 ± 0.5, F 0.127 ± 0.061, P 0.466 ± 0.29, G -0.259 ± 0.73, W 0.256 ± 0.083, M 0.0247 ± 0.081, Q 0.602 ± 0.51, D 0.606 ± 0.6, H -0.271 ± 0.11, E -0.17 ± 0.24, I 0.208 ± 0.44, K 0.379 ± 0.093, Y -0.339 ± 0.4, N 0.0103 ± 0.076, R 0.101 ± 0.38, C -0.106 ± 0.11, S 0.17 ± 0.34
D4: F 0.414 ± 0.23, I 0.179 ± 1, Y 0.616 ± 0.39, C 0.509 ± 0.18, Q -3.53 ± 0.6, S 0.199 ± 0.46, L 0.0531 ± 0.29, V 0.202 ± 0.24, W 0.262 ± 0.053, P -0.0888 ± 0.36, E 1.26 ± 0.14, H -0.661 ± 0.68, R -0.235 ± 0.59, G 0.166 ± 0.2, A 0.529 ± 0.99, T -0.494 ± 0.11, N 0.245 ± 0.27
V20: Y 0.662 ± 0.42, K -0.579 ± 0.17, S -0.474 ± 0.42, P 0.184 ± 0.63, R -0.283 ± 0.69, L 0.278 ± 0.32, A -0.889 ± 0.64, T 0.0422 ± 0.34, W 0.633 ± 0.12, M 0.622 ± 0.34, F 0.146 ± 0.077, E -1.26 ± 0.12, N -0.0183 ± 0.18, Q -0.25 ± 0.26, H -0.433 ± 0.067, G -0.208 ± 0.36, I 1.31 ± 0.54, D 0.0604 ± 0.26, C -0.981 ± 0.093
A21: C 0.675 ± 0.39, F -0.0679 ± 0.18, D -0.73 ± 0.38, E 0.657 ± 0.37
